Results reported in article PMC2845462.

Target: FLAG-HA-Twi1p-WT (Tetrahymena thermophila) (UniProt Q8MXZ9)
Assay: co-IP

amount co-precipitated after 100 μg/mL RNase A, against the untreated lysate: 60%
Substance: Giw1p (natural protein)
